Assay [1] addresses T1, soluble KIR3DL1*001-Fc (human, UniProt P43629 22-340).
T1 construct: also called KIR3DL1 allele 001; KIR3DL1 allele-001 antigen; not shown: Fc domain
Description: BLI (ForteBio QK), hIgG1. A general note: In BLI a coated tip is dipped into the sample, and binding shifts an interference pattern.

In assay [2] the target is T2, soluble KIR3DL1*033-Fc (human, UniProt P43629 22-340).
T2 construct: also called KIR3DL1 allele 033; Allele 033; not shown: Fc domain
Put plainly: BLI (ForteBio QK), hIgG1.

Assay [3] addresses T3, soluble KIR3DL1*007/015-Fc (human, UniProt P43629 22-338).
T3 construct: also called KIR3DL1 allele 007/015; CD158e allele 007/015; not shown: Fc domain
Put plainly: BLI (ForteBio QK), hIgG1.

The target of assay [4] is T4, soluble KIR3DL1*002-Fc (human, UniProt P43629 22-338).
T4 construct: also called KIR3DL1 allele 002; Allele 002; not shown: Fc domain
T4 sequence (P43629 other isoform, or with tags, fused parts or gaps): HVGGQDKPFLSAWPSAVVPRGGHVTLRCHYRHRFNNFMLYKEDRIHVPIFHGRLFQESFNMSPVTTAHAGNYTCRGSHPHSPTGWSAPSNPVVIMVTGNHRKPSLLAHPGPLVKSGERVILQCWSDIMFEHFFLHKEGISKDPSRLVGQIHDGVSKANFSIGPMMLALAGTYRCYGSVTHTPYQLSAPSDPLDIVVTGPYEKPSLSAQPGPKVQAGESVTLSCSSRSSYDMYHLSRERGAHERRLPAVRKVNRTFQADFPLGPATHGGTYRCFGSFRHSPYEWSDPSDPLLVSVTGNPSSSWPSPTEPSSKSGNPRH
Put plainly: BLI (ForteBio QK), hIgG1.

The target of the next assay is T5, soluble KIR3DL1*020-Fc (human, UniProt P43629 22-339).
T5 construct: also called KIR3DL1 allele 020; CD158e allele 020; not shown: Fc domain
T5 sequence (P43629 other isoform, or with tags, fused parts or gaps): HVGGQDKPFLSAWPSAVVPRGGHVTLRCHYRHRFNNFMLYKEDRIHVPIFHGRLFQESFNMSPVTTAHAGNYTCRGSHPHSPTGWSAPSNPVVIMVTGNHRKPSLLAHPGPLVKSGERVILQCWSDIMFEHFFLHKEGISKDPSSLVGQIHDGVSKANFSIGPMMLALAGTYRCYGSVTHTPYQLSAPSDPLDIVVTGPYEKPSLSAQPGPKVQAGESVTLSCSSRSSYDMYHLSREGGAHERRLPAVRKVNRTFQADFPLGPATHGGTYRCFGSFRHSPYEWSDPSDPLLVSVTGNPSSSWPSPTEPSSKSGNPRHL
Description: BLI (ForteBio QK), hIgG1.

Assay [5] has as its target T4, soluble KIR3DL1*002-Fc. Put plainly: SPR (BIACORE T-100), kinetics. (In SPR one partner is held on a chip, and binding of the other changes the refractive index at the surface.)
Assay [6] concerns the target T1, soluble KIR3DL1*001-Fc. Description: BLI (Forte-Bio), partial fit, IgG.
Assay [7] addresses T1, soluble KIR3DL1*001-Fc. Description: SPR (BIACORE T-100).
Assay [8] has as its target T2, soluble KIR3DL1*033-Fc. Description: SPR (BIACORE T-100).
Assay [9] addresses T4, soluble KIR3DL1*002-Fc. Put plainly: SPR (BIACORE T-100).
The target in assay [10] is T1, soluble KIR3DL1*001-Fc. Description: BLI (ForteBio QK), hIgG1; ForteBio, hIgG1, allele 001 (Table 2).
Assay [11] concerns the target T4, soluble KIR3DL1*002-Fc. Description: SPR (BIACORE T-100), kinetics; Biacore T-100, allele 002.

T2 sequence (P43629 other isoform, or with tags, fused parts or gaps): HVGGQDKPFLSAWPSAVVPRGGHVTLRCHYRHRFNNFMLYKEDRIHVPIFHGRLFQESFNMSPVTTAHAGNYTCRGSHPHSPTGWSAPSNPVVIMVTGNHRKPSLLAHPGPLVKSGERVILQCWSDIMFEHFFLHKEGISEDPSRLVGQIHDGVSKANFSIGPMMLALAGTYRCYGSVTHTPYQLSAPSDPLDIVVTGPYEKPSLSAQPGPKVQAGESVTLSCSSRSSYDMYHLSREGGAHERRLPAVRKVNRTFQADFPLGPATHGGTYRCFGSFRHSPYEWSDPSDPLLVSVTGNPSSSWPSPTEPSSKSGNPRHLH

B1: ET160-74 (antibody, human IgG1, V domains shown)
VH: QVQLVQSGAEVKKPGSSVKVSCKASGGTFSSYAISWVRQAPGQGLEWMGWMNPNSGNTGYAQKFQGRVTMTRNTSISTAYMELSSLRSEDTAVYYCARYSFHLDGWGQGTLVTVSS
VL: QSVLTQPPSVSAAPGQKVTISCSGSSSNVGNNYVSWYQQVPGTAPKLLIYDNNRRPSGIPDRFSGSKSGTSATLGITGLQTGDEADYYCGTWDNSLRVELFGGGTKVTVLG
notes: Tested as human IgG1 (hIgG1), lambda light chain
Take B1: the Kd (usually the concentration at which binding is half-saturated) worked out at 13.3 nM with soluble KIR3DL1*001-Fc [1]; 11 nM with soluble KIR3DL1*033-Fc [2]; 10.1 nM in [3]; 8.6 nM with soluble KIR3DL1*002-Fc [4]; 11.2 nM with soluble KIR3DL1*020-Fc; 108 nM with soluble KIR3DL1*002-Fc [5]. The Kd with soluble KIR3DL1*001-Fc [6] was found to be 13.3 nM; in the assay with soluble KIR3DL1*001-Fc [7] it was 11.9 nM; in the assay with soluble KIR3DL1*033-Fc [8], 62.2 nM; in the assay with soluble KIR3DL1*002-Fc [9] it was 108 nM. Besides, the results for the koff in the assay with soluble KIR3DL1*002-Fc [5] and with soluble KIR3DL1*001-Fc [6] were 0.0112 s⁻¹ and 0.00161 s⁻¹, respectively. The kon (usually the rate constant with which the complex forms) came out at 103000 M⁻¹ s⁻¹ with soluble KIR3DL1*002-Fc [5] and 122000 M⁻¹ s⁻¹ with soluble KIR3DL1*001-Fc [6].

B2: ET160-72 (antibody, human IgG1, V domains shown)
VH: QVQLVQSGGGVVRSGGSLRLTCAASGFTFGDYGMSWVRQAPGKGLEWVSGINWNGGGTGYADSVKGRFTISRDNAKDSLYLQMNSLRAEDTALYYCARVWGCGSTTCYEGADDAFDIWGQGTMVTVSS
VL: LPVLTQPPSISGAPRQRVTISCSGARSNIGNNAVNWYQQVPGEAPKLLIFYDDQQPSGISGRFSGSKSGTSASLAISGLQSEDEADYYCAAWDDSLNGWVFGGGTKLTVLG
notes: as for B1
Take B2: the Kd worked out at 15.8 nM with soluble KIR3DL1*001-Fc [1]; 15.4 nM with soluble KIR3DL1*033-Fc [2]; 11.6 nM in assay [3]; 11.6 nM with soluble KIR3DL1*002-Fc [4]; 11.4 nM in the assay with soluble KIR3DL1*020-Fc; 316 nM with soluble KIR3DL1*002-Fc [5]. Moreover, the equilibrium dissociation constant (Kd) was 15.8 nM with soluble KIR3DL1*001-Fc [6], 182 nM with soluble KIR3DL1*001-Fc [7], 138 nM with soluble KIR3DL1*033-Fc [8] and 316 nM with soluble KIR3DL1*002-Fc [9]. In addition, the koff (commonly a measure of how fast the partners let go of each other) with soluble KIR3DL1*002-Fc [5] came out at 0.0159 s⁻¹; with soluble KIR3DL1*001-Fc [6], 0.00212 s⁻¹. The results for the kon with soluble KIR3DL1*002-Fc [5] and with soluble KIR3DL1*001-Fc [6] were 50500 M⁻¹ s⁻¹ and 134000 M⁻¹ s⁻¹, respectively.

B3: ET160-61 (antibody, human IgG1, V domains shown)
VH: QVQLVESGGGLVQPGRSLRLSCAASGFTFDDYAMHWVRQAPGKGLEWVSGISWNSGSIGYADSVKGRFTISRDNAKNSLYLQMNSLRAEDTAVYYCASSLRYFEWPIDYWGQGTLVTVSS
VL: NFMLTQPLSVSESPGKTVTISCTANGGSLASKYVQWFQQRPGSSPTTVIYDDNLRPSGVPDRFSGSIDTSSNSAALTISGLKTEDEADYYCQSYDNSSVVFGGGTKLTVLG
notes: as for B1
Regarding B3, the Kd with soluble KIR3DL1*001-Fc [1] was found to be 15.1 nM; with soluble KIR3DL1*033-Fc [2], 22.7 nM; in assay [3] it was 4.1 nM; with soluble KIR3DL1*002-Fc [4], 21.7 nM; with soluble KIR3DL1*020-Fc it was 19.4 nM; with soluble KIR3DL1*002-Fc [5] it was 27.7 nM. Moreover, the Kd came out at 15.1 nM with soluble KIR3DL1*001-Fc [6], 45.9 nM with soluble KIR3DL1*001-Fc [7], 10.8 nM with soluble KIR3DL1*033-Fc [8] and 27.7 nM in the assay with soluble KIR3DL1*002-Fc [9]. Further, the dissociation rate constant (koff) with soluble KIR3DL1*002-Fc [5] was 0.00232 s⁻¹; with soluble KIR3DL1*001-Fc [6], 0.00193 s⁻¹. Further, the kon with soluble KIR3DL1*002-Fc [5] was determined as 84000 M⁻¹ s⁻¹; with soluble KIR3DL1*001-Fc [6], 127000 M⁻¹ s⁻¹.

B4: ET160-42 (antibody, human IgG1, V domains shown)
VH: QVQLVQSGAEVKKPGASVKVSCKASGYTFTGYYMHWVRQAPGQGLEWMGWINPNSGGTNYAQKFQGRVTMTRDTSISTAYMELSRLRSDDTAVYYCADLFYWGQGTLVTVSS
VL: QSALTQPASVSGSPGQSITISCTGTSSDVGGYNYVSWYQQHPGKAPKLMIYDVSNRPSGVSNRFSGSKSGNTASLTISGLQAEDEADYYCSSYTSSNTLVFGTGTKVTVLG
notes: Tested as human IgG1 (hIgG1), lambda light chain; Clone from a human scFv phage display library
As to B4, the Kd in the assay with soluble KIR3DL1*001-Fc [10] came to 12.9 nM; with soluble KIR3DL1*033-Fc [2], 10.3 nM; in [3] it was 8.4 nM; with soluble KIR3DL1*002-Fc [4], 8.5 nM; in the assay with soluble KIR3DL1*020-Fc, 10.1 nM; with soluble KIR3DL1*002-Fc [5] it was 93.5 nM. Further, the dissociation constant (Kd) with soluble KIR3DL1*001-Fc [7] is 89.5 nM; with soluble KIR3DL1*033-Fc [8], 75.2 nM; with soluble KIR3DL1*002-Fc [9] it was 93.5 nM; in the assay with soluble KIR3DL1*002-Fc [11] it was 93.5 nM. For the same molecule, the figures for the koff with soluble KIR3DL1*002-Fc [5] and with soluble KIR3DL1*001-Fc [6] were 0.0171 s⁻¹ and 0.00221 s⁻¹, respectively. Also, the kon was 183000 M⁻¹ s⁻¹ with soluble KIR3DL1*002-Fc [5] and 172000 M⁻¹ s⁻¹ with soluble KIR3DL1*001-Fc [6].

B5: ET160-77 (antibody, human IgG1, V domains shown)
VH: EVQLVETGGGLVKPGGSLRLSCAASGFTFSDYYMSWIRQAPGKGLEWVSYISSSSSYTNYADSVKGRFTISRDNAKNSLYLQMNSLRAEDTAVYYCAREGIAAADAFDIWGQGTMVTVSS
VL: SYELTQPPSVSVAPGQAATITCAGDNIESKSVNWYQQKPGQAPVLVVYDDTVRPSGIPERFSGSNSGNPATLTISRSEAGDEADYYCQVWDNRRDHVVFGGGTKVTVLG
notes: as for B1
For the molecule B5, the Kd with soluble KIR3DL1*001-Fc [1] came to 13.9 nM; with soluble KIR3DL1*033-Fc [2] it was 13.1 nM; in [3], 11.4 nM; in the assay with soluble KIR3DL1*002-Fc [4] it was 10.9 nM; in the assay with soluble KIR3DL1*020-Fc it was 10.5 nM; with soluble KIR3DL1*002-Fc [5] it was 197 nM. Further, the Kd amounted to 13.9 nM with soluble KIR3DL1*001-Fc [6], 53.1 nM with soluble KIR3DL1*001-Fc [7], 48.3 nM with soluble KIR3DL1*033-Fc [8] and 197 nM with soluble KIR3DL1*002-Fc [9]. The koff in the assay with soluble KIR3DL1*002-Fc [5] came out at 0.00987 s⁻¹; in the assay with soluble KIR3DL1*001-Fc [6], 0.00222 s⁻¹. Moreover, the kon with soluble KIR3DL1*002-Fc [5] was found to be 50000 M⁻¹ s⁻¹; in the assay with soluble KIR3DL1*001-Fc [6] it was 160000 M⁻¹ s⁻¹.

B6: ET160-73 (antibody, human IgG1, V domains shown)
VH: QVQLVQSGAEVKKPGESLKISCKGSGYSFTSYWIGWVRQMPGKGLEWMGIIYPGDSDTRYSPSFQGQVTISADKSISTAYLQWSSLKASDTAMYYCARGREQLWLDGMDVWGQGTTVTVSS
VL: DVVMTQSPLSLPVTLGQPASISCRSTQSLVHSDGNTYLNWFQQRPGQSPRRLIYGVSNRDFGVPDRFSASGSGTDFTLKINRVEAEDVGVYYCMQGTHWPLTFGQGTKVEIKR
notes: Tested as human IgG1 (hIgG1), kappa light chain
Take B6: the Kd in the assay with soluble KIR3DL1*001-Fc [1] is 21.2 nM; in the assay with soluble KIR3DL1*033-Fc [2] it was 14.4 nM; in [3] it was 16.1 nM; in the assay with soluble KIR3DL1*002-Fc [4] it was 16.3 nM; in the assay with soluble KIR3DL1*020-Fc, 15.7 nM; with soluble KIR3DL1*002-Fc [5], 124 nM. The Kd amounted to 21.2 nM with soluble KIR3DL1*001-Fc [6], 136 nM with soluble KIR3DL1*001-Fc [7], 55.6 nM with soluble KIR3DL1*033-Fc [8] and 124 nM in the assay with soluble KIR3DL1*002-Fc [9]. The koff with soluble KIR3DL1*002-Fc [5] was determined as 0.00481 s⁻¹; in the assay with soluble KIR3DL1*001-Fc [6] it was 0.00302 s⁻¹. Further, the kon with soluble KIR3DL1*002-Fc [5] amounted to 38900 M⁻¹ s⁻¹; with soluble KIR3DL1*001-Fc [6] it was 143000 M⁻¹ s⁻¹.

The values above are taken from patent US20200031927A1 (Memorial Sloan Kettering, published 2020).
